Measured values reported in patent US20220160939A1, “SELF-ASSEMBLING PEPTIDES AS BRONCHIAL OBSTRUCTION AGENTS” (3-D MATRIX, LTD., priority 2014, published 2022).

What was measured:
[1] = system: Swine lungs; experiment: Lung volume reduction: injection of peptide hydrogel into bronchi of excised lungs; settings: for filling of lumens of the lungs (histology): hydrogel with 0.00585% Indigo Carmine
Description: Swine lungs were obtained from freshly euthanized pigs. An endotracheal tube, connected to a syringe filled with a peptide hydrogel, was inserted through the trachea and primary bronchus into the lobe of interest. The tube was led through the bronchi to the end of the appropriate lobe and the distance was noted.
The self-assembling peptide hydrogels were comprised of Ac-RADARADARADARADA-NH2 (SEQ ID NO: 1) (i.e., RADA16) or Ac-IEIKIEIKIEIKI-NH2 (SEQ ID NO: 2) (i.e., IEIK13). RADA16 (SEQ ID NO:1) or IEIK13 (SEQ ID NO:2) was mixed with 0.00585% Indigo Carmine to observe spreading of the hydrogels throughout the lobes. When mixed, the peptides were reconstituted with […]. The peptides were reconstituted first in deionized water, and subsequently with 1% Indigo Carmine to provide a final concentration of 0.00585% of the contrast reagent.
Once the lobe of interest was identified, the endotracheal tube was fed to the end where the hydrogels were injected. After each injection of 1 ml of hydrogel the tube was retracted 2 cm and the injection was repeated. This procedure was repeated until a backflow of hydrogel was observed from the bronchi and the total volume of hydrogel injected was noted. The final injection ranged from 0.5-1.5 ml. After backflow of hydrogel was observed, the lobes were cut at 90 degrees to the midline for histological analysis. FIG. 25 illustrates the procedural flow of injecting peptide hydrogel into the bronchi of a single lobe of the lung and observation of penetration of the solution. Lumen penetration of 1% Indigo Carmine solution (left) was compared to 1.5% IEIK13 (SEQ ID NO:2)+0.00585% Indigo Carmine (right).
Tissue samples were fixed in paraformaldehyde and rinsed with ethanol. Histology was conducted at Beth Israel Deaconess Medical Center. […] FIG. 28A presents the IEIK13 (SEQ ID NO:2) gel observed within the major lumens. FIG. 28B presents the IEIK13 ((SEQ ID NO:2) gel observed within the minor lumens. Due to H&E processing, peptide gels break/fragment. Optical imaging has shown that these gels remain as bulk structures.

[2] = Rheological properties of ionic strength adjusted hydrogels after DMEM treatment for 10 min; assay type: physicochemical; settings: 1% hydrogels
Protocol: Based on the results of the effect on the rheological properties of the peptide solutions after adjusting their ionic strength levels, the effect on the rheological properties of the peptide hydrogels after DMEM treatment for 10 min was evaluated. […] The results are shown in FIG. 15 for PuraMatrix® (SEQ ID NO:1) 1% hydrogels and in FIG. 16 for IEIK13 (SEQ ID NO:2) 1% hydrogels, both after DMEM treatment for 10 min. Frequency sweep tests were performed from 1 rad/sec to 10 rad/sec at 1 Pa and the storage modulus at 1 rad/sec was selected for data.
Based on the results of the effect on the rheological properties of the peptide solutions and hydrogels after adjusting their ionic strength levels with NaCl, the effect of various salts (KCl, MgCl2, and CaCl2) was also evaluated. The rheological property of PuraMatrix® (SEQ ID NO:1) solutions increases with ionic strength adjustment at 0.15 M of all the salts. Increases of the rheological property of PuraMatrix® (SEQ ID NO:1) solutions with various salts were not predominantly different. However, increases of the rheological property of PuraMatrix® (SEQ ID NO:1) solutions may vary depending on the salting out constant, K of each salt. Constant K is a constant in Cohen's equation: log S=B−KI, where S is solubility, B is idealized solubility, K is salting out constant, and I is ionic strength. With a higher value of constant K and ionic strength of salts, solubility of the peptide may decrease resulting in strong peptide self-assembly with increased hydrophobic effect and higher rheological properties of the peptide solution. The constant K of NaCl may be higher than the other salts. […] The results are shown in FIG. 17 for PuraMatrix® (SEQ ID NO:1) 1% solution before DMEM treatment, and in FIG. 18 for PuraMatrix® (SEQ ID NO:1) 1% hydrogels after DMEM treatment for 10 min Frequency sweep tests were performed from 1 rad/sec to 10 rad/sec at 1 Pa and the storage modulus at 1 rad/sec was selected for data.

[3] = Gelation kinetics of pH adjusted peptides, time sweep test with DMEM; assay type: physicochemical
Protocol: The effect of pH level on the properties of gelation kinetics was evaluated to identify optimized pH levels for the peptides as described herein. Fast gelation kinetics of PuraMatrix® and other peptides within body fluid may generally improve its function and response time for various clinical applications. The pH level may impart response time to begin gelation when treated with simulated body fluid including but not limited to DMEM. […] A fast response time of PuraMatrix® (SEQ ID NO:1) and other peptides within body fluid may generally improve its function and response time for various clinical applications.
(§1) Time sweep tests were performed at 1 rad/sec and at 1 Pa with 20 mm plates and 500 μm gap distance. During time sweep test of PuraMatrix® (SEQ ID NO:1) 2.5% solution, DMEM was added into the chamber surrounding the measuring plates to soak PuraMatrix® (SEQ ID NO:1) solution at 0 time point. The results are shown in FIG. 9A for PuraMatrix® (SEQ ID NO:1) 2.5% solution.
as §1, with “IEIK13” for “PuraMatrix®”, “NO:2) 1.5%” for “NO:1) 2.5%”, “NO:2) 1.5%” for “NO:1)”, “point and continuously data was recorded.” for “point.”, “9B” for “9A”

[4] = with pH adjustment, PuraMatrix 2.5%, IEIK13 1.5% solution

Substance | lung volume reduction, penetration into lung tissue, versus 1.5% IEIK13 ([1]; 1.0% with 0.00585% Indigo Carmine) | filling of lumens of the lungs (histology) [1] | ionic strength above which the rheological property of hydrogels after DMEM treatment decreases ([2]; DMEM treatment for 10 min) | ionic strength up to which the rheological property of hydrogels after DMEM treatment increased ([2]; DMEM treatment for 10 min) | gelation response to DMEM [3, 4] | rheological property of hydrogels after DMEM treatment ([2]; ionic strength adjustment up to 0.025 M, DMEM 10 min) | gelation response to DMEM ([3]; without pH adjustment, 1.5% solution)
Arg-Ala-Asp-Ala-Arg-Ala-Asp-Ala-Arg-Ala-Asp-Ala-Arg-Ala-Asp-Ala [PuraMatrix ®] | decidedly better | filled both major and minor lumens | above 0.7 M | up to 0.7 M | immediate storage modulus increase | – | –
Ile-Glu-Ile-Lys-Ile-Glu-Ile-Lys-Ile-Glu-Ile-Lys-Ile [IEIK13] | – | filled both major and minor lumens | above 0.03 M | – | immediate storage modulus increase | did not significantly change | immediate storage modulus increase
